Patent US9789203B2, “cKIT antibody drug conjugates” (Novartis AG, priority 2013, dated 2017)
Numbering of substitutions follows the chain as printed.

T1: mouse cKIT ECD (Mus musculus, UniProt P05532)
T1 construct: 3.125-50 nM of cKIT receptor extracellular domains (ECD) were diluted in a 2-fold series
T1 sequence (P05532 25-527 limits assumed): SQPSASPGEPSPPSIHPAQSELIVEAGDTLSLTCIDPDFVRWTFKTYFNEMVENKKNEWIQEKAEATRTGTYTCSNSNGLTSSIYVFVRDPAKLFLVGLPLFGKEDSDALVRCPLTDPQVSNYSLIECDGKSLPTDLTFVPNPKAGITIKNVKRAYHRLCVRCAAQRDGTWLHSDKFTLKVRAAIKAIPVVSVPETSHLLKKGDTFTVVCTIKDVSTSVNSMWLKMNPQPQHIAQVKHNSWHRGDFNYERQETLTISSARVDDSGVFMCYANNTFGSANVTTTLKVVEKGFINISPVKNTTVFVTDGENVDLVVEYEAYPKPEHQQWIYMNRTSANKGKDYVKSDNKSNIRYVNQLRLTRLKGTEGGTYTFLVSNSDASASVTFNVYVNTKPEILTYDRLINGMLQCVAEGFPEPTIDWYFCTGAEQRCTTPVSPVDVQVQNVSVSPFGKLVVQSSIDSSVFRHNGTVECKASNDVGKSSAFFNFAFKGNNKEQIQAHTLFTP

B1: 9P3: hybridoma derived anti-cKIT antibody, VH SEQ ID NO.9, VL SEQ ID NO.18 (antibody, V domains shown)
VH: EVRLVESEGGLVQPRSSMKLSCTASGFTFSDYYMAWVRQVPEKGLEWVANINYDGSSTYYLDSLKSRFIISRDNAKNILYLQMSSLKSEDTATYYCARGDYYGTTYWYFDVWGTGTTVTVSS
VL: DIQMTQTTSSLSASLGDRVTISCRASQDISNYLNWYQQKPDGTVKLLIYYTSRLQSGVPSRFSGSGSGTDYSLTISNLEQEDIATYFCQQGKKLWSFGGGTKLEIKR
B2: NEG026: anti-cKIT antibody of Table 1, VH SEQ ID NO 46, VL SEQ ID NO 55 (antibody, V domains shown)
VH: EVQLVESGGGLVQPGGSLRLSCAASGFTFSDYYMAWVRQAPGKGLEWVANINQNTGSTYYVDSVQGRFTISRDNAKNSLYLQMNSLRAEDTAVYYCARGDYYGTTYWYFDVWGQGTTVTVSS
VL: EIVMTQSPATLSLSPGERATLSCRASQDISNYLNWYQQKPGQAPRLLIYYTSRLQSGIPARFSGSGSGTDYTLTISSLEPEDFAVYYCQQGKKLWSFGGGTKVEIK
B3: NEG087: anti-cKIT antibody of Table 1, VH SEQ ID NO 118, VL SEQ ID NO 127 (antibody, V domains shown)
VH: B2 VH with N50S, V61L, Q65R
VL: DIQMTQSPSSLSASVGDRVTITCRASQSISSYLNWYQQKPGKAPKLLIYYTSRLQSGVPSRFSGSGSGTDFTLTISSLQPEDFATYYCQQGRRLWSFGGGTKVEIK
B4: NEG027: anti-cKIT antibody of Table 1, VH SEQ ID NO 64, VL SEQ ID NO 73 (antibody, V domains shown)
VH: B2 VH with N50S, V61L, Q65R
VL: B2 VL
B5: NEG086: anti-cKIT antibody of Table 1, VH SEQ ID NO 100, VL SEQ ID NO 109 (antibody, V domains shown)
VH: B2 VH with N54I, T55A
VL: B3 VL

How the values were obtained:
[1] = tested on: HAMLX5343 systemic primary AML xenograft; assay: In vivo efficacy, HAMLX5343 systemic primary AML xenograft
Description: (§4) Female NSG mice were implanted systemically (via tail vein injection) with 5×10^6 cells in phosphate buffered saline.
(§5) Leukemic burden was measured by flow cytometry. Weekly, blood was collected from all study animals via the tail. […] The stained cells were analyzed on a FACS Canto flow cytometer (BD Biosciences) (FIG. 52A). Body weights were measured twice weekly (FIG. 52B).

[2] = tested on: HAMLX5343 systemic primary AML xenograft; details: mouse, in vivo, ip
Description: as §4, §5

GIST cell lines = details: Edris et al. 2013; cited from earlier work
Uke-1 cells = assay: ADCC activity in vitro (Calcein release, NK3.3 effector cells); type: cell-based, human; details: Uke-1 target cells, NK3.3 effector cells 20 to 1, FIG. 17
Description: In brief, Uke-1 cells were stained with Calcein acetoxy-methyl ester (Calcein-AM; Sigma-Aldrich catalog #17783-5MG, St. Louis, Mo.), washed twice, pipetted into a 96-well microtiterplate (96 well, U-bottomed, clear plastic; Corning Costar, catalog #650 160, Tewksbury, Mass.) at a concentration of 5000 cells per well and pre-incubated for 10 min with a serial dilution of the above mentioned antibodies and proteins (from 50,000 to 0.003 μg per ml) before adding the effector NK3.3 cells for 1 hour in an effector to target ratio of 20 to 1. In order to calculate the antibody specific lysis of the target cells, a parallel incubation of target cells only without antibody or effector cells served as a baseline and negative control, whereas the positive control or maximal lysis or hundred percent specific lysis was determined by lysis of target cells only with a 1% Triton-X 100 solution. […] Following a co-incubation of target and effector cells, the microtiterplate was centrifuged and an aliquot of the supernatant fluid was transferred to another microtiterplate (96 well, flat-bottomed, black with clear bottom; (Corning Costar, catalog #3904, Tewksbury, Mass.) and the concentration of free Calcein in solution was determined with a fluorescence counter (Victor 3® multilabel counter, Perkin Elmer, Waltham, Mass.).

[3] = tested on: GIST T1 subcutaneous tumor xenograft; details: GIST T1, SCID-beige mice, single i.v. dose 10 mg/kg
Description: The anti-tumor activity of anti-cKIT ADCs was evaluated in several tumor xenograft models.

rat cKIT ECD = assay: SPR (Biacore 2000) affinity measurement; type: binding; details: 25° C., antibody captured, ECD in solution
rat cKIT ECD, sequence (as listed by the source): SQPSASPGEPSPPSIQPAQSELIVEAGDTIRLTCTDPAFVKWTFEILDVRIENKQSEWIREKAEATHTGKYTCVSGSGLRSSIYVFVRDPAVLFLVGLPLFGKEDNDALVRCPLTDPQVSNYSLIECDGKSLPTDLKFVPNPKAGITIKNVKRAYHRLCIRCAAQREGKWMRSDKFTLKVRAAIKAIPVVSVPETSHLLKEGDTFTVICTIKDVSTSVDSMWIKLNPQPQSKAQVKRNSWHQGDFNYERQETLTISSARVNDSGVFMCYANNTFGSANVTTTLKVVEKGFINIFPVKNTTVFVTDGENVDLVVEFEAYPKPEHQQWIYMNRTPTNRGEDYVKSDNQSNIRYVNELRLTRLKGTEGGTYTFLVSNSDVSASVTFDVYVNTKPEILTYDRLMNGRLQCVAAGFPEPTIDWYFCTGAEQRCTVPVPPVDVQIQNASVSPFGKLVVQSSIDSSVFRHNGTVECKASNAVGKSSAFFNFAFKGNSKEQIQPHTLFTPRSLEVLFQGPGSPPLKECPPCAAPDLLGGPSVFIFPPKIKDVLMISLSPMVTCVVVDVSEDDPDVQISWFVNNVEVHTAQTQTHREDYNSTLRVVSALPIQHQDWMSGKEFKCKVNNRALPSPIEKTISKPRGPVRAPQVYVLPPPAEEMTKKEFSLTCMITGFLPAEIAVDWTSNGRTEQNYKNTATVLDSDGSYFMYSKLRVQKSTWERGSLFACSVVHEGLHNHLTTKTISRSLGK
Description: (§1) Affinity of the antibodies to cKIT species orthologues and also to cKIT was determined using SPR technology using a Biacore® 2000 instrument (GE Healthcare, Pittsburgh, Pa.) and with CM5 sensor chips.
(§2) Briefly, HBS-P (0.01 M HEPES, pH 7.4, 0.15 M NaCl, 0.005% Surfactant P20) supplemented with 2% Odyssey® blocking buffer (Li-Cor Biosciences, Lincoln, Nebr.) was used as the running buffer for all the experiments. The immobilization level and analyte interactions were measured by response unit (RU). Pilot experiments were performed to test and confirm the feasibility of the immobilization of the anti-human Fc antibody (Catalog number BR100839, GE Healthcare, Pittsburgh, Pa.) and the capture of the test antibodies.
(§3) For kinetic measurements, the experiments were performed in which the antibodies were captured to the sensor chip surface via the immobilized anti-human Fc antibody and the ability of the cKIT proteins to bind in free solution was determined Briefly, 25 μg/ml of anti-human Fc antibody at pH 5 was immobilized on a CM5 sensor chip through amine coupling at flow rate of 5 μl/minute on all two flow cells to reach 10,500 RUs. 0.1-1 μg/ml of test antibodies were then injected at 10 μl/min for 1 minute. Captured levels of the antibodies were generally kept below 200 RUs. Subsequently, 3.125-50 nM of cKIT receptor extracellular domains (ECD) were diluted in a 2-fold series and injected at a flow rate of 40 μl/min for 3 min over both reference and test flow cells. Table of tested ECDs is listed below. Dissociation of the binding was followed for 10 min. After each injection cycle, the chip surface was regenerated with 3 M MgCl2 at 10 μl/min for 30 s.

mouse cKIT ECD = molecular target: T1, mouse cKIT ECD; assay: SPR (Biacore 2000) affinity measurement; type: binding; details: 25° C., antibody captured, ECD in solution
Description: as §1, §2, §3

SCF binding to cKIT = SCF binding to cKIT (Homo sapiens, UniProt P10721); assay: Competition assays using ELISA and FACS, SCF binding to cKIT
SCF binding to cKIT, sequence (P10721 26-976): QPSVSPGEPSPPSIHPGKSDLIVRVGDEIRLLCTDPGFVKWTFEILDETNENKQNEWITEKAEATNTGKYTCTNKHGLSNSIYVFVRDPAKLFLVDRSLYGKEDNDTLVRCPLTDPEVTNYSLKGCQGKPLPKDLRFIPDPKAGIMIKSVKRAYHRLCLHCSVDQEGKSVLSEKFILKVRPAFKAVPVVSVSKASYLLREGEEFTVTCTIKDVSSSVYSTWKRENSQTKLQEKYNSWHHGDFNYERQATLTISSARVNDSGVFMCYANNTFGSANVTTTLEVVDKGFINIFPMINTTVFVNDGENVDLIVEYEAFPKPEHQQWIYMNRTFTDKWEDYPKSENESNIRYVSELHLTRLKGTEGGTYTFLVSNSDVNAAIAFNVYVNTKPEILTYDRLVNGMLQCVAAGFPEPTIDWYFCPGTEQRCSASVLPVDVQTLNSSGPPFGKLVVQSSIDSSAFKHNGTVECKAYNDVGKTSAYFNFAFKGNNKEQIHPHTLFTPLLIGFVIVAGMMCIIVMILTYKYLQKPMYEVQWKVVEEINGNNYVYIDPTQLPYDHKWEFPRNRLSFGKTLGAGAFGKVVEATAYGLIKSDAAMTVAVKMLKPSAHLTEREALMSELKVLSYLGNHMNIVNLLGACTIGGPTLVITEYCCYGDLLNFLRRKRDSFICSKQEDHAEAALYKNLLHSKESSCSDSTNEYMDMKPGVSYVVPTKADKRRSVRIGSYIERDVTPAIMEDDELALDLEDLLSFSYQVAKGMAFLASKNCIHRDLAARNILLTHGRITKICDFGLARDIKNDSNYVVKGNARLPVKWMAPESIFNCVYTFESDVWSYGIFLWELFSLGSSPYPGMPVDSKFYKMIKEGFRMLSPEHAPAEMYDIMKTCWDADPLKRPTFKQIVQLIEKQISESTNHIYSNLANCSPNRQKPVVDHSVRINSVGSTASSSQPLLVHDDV

[4] = HAMLX5343, Day 71, 50 mg/kg Daily x 6 days, intraperitoneally

| Molecule | Affinity to rat cKIT (rat cKIT ECD) | Affinity mouse cKIT (mouse cKIT ECD) | also measured |
| --- | --- | --- | --- |
| Nc1ccn([C@@H]2O[C@H](CO)[C@@H](O)[C@@H]2O)c(=O)n1 [ARA-C, cytarabine, reference compound] | – | – | Mean change of body weight (from day 67) [1, 4]: 2.3 ± 2.3 % ± SEM; Mean change of tumor volume [1, 4]: −6.6 ± 2.1 % CD45 positive PBMC's ± SEM; Regression [1, 4]: −52.5%; antitumor activity (leukemic burden) ([1]; HAMLX5343, intraperitoneally daily for 6 days): efficacious in three of the animals; bodyweight loss ([1]; HAMLX5343, intraperitoneally daily for 6 days, three of six animals): > 20%; toxicity [2]: highly toxic |
| Cc1ccc(NC(=O)c2ccc(CN3CCN(C)CC3)cc2)cc1Nc1nccc(-c2cccnc2)n1 [Imatinib] | – | – | cell proliferation (GIST cell lines): significantly reduce proliferation of GIST cell lines |
| MabCampath [reference compound] | – | – | ADCC (Uke-1 cells): mediated ADCC killing of the target cells |
| B1 | Not reactive | Not reactive | antitumor activity (tumor volume) [3]: Neither the control non-specific IgG1 ADCs nor the unconjugated 9P3 were efficacious; blocking of SCF binding to cKIT (SCF binding to cKIT): partial blocking |
| B2 | Not reactive | Not reactive | – |
| B3 | Not reactive | Not reactive | – |
| B4 | Not reactive | Not reactive | – |
| B5 | Not reactive | Not reactive | – |
